The results in this text go back to patent US8323971B2, “Differentiation of pluripotent cells into primary germ layer progenitors” (Cambridge Enterprise Limited, priority 2006, dated 2012).

Holding throughout (assay type): cell-based, human
Assay [1] relates to hESC derived EBs. The experiment in a line: Real time qPCR / RT-PCR of neuroectoderm and pluripotency markers in EBs. To be noted: expressing EBs compared to wildtype. The procedure:
Four independent batches of WT and Lefty EBs were used for this analysis.
Five independent batches of DMSO- and SB431542-treated EBs were used for this analysis.
(§1) Lefty or Cerb-S expressing hESCs (as well as wildtype H9 and hSF-6 hESCs) were grown in 6 cm dishes (Corning), on mouse feeders. When confluent, hESCs were passaged using collagenase 1 mg/ml, as previously described (Schatten et al., 2005) and cultured in non-adherent conditions in CDM supplemented with either SU5402 (Calbiochem; 10 μM), SB431542 (Tocris; 20 μM), FGF-2 (R&D Systems; 12 ng/ml) or Noggin 200 ng/ml.
For some RT-PCR experiments, 50-100 ng of RNA were used for each RT-PCR reaction, using the OneStep RT-PCR kit according to manufacturer instructions. For real-time PCR, 1 μg RNA was reverse-transcribed using the Qiagen QuantiTect Reverse Transcription kit. 1/20-1/40 of each cDNA reaction was used for each real-time PCR reaction using the QuantiTect SYBR Green PCR Kit (Qiagen) according to manufacturer instructions. Relative quantification of gene expression was done by normalising the detected levels of gene of interest mRNA to those of the house-keeping GAPDH gene. All primers were purchased from Qiagen, with the exception of Xenopus Cerb-S: Forward 5′-[…]-3′ (SEQ ID NO: 1); Reverse 5′-ATGGTGCAGGGTAG TAGATG-3′ (SEQ ID NO: 2). Mouse Lefty2: Forward 5^r-[…]-3′ (SEQ ID NO: 3); Reverse 5′-[…]-3′ (SEQ ID NO: 4).
For orientation: Quantitative PCR measures a nucleic acid by following its amplification.

The subject of assay [2] is hESCs. The experiment in a line: Quantitation of β-tubulin III positive cells in monolayer differentiation. To be noted: expressing hESCs differentiated in CDM, monolayer, 24 days. As for the experimental part:
In some experiments, Wildtype and Lefty expressing hESCs were grown on fibronectin in FGF (12 ng/ml)/Activin (20 ng/ml) as a monolayer in the absence of a feeder layer (Vallier et al., 2005). When cells were 70-80% confluent medium was changed to either CDM only, CDM/FGF (12 ng/ml), CDM/Noggin 200 ng/ml, CDM/SU5402 and differentiated for 24 days.
To quantify the neurogenic potential of Lefty expressing hESCs, we cultured Lefty expressing hESCs in feeder-free conditions as a monolayer in CDM supplemented with Activin and FGF as described previously (Vallier et al., 2005). When cells reached 70-80% confluency, medium was changed to CDM only, CDM plus FGF (12 ng/ml) (CDM/FGF), CDM plus the BMP inhibitor Noggin (200 ng/ml) ([…]) (CDM/SU5402), and cells were cultured in these conditions for 24 days
The incidence of neural differentiation was determined by counting the number of β-tubulin III positive cells in random fields.

The subject of assay [3] is hESC derived EBs. The experiment in a line: Incidence of beating structures in EBs plated in MEF media. To be noted: over-expressing EBs in MEF medium containing FBS. As for the experimental part:
Lefty, Cerb-S expressing and wildtype EBs were plated in MEF media, and beating EBs were counted. Lefty expressing EBs generated fewer beating structures as compared to wildtype EBs (NS=not significant) (Scale bar=[…]).
In some experiments, hESCs were incubated in DMEM supplemented with 10% FCS and 1 mM glutamine (MEF media) to promote mesoderm formation. EBs were then grown for 12-16 days at 37° C. at […] before being harvested for histological or molecular marker analysis.
To evaluate further the differentiation potential of Lefty and Cerb-S overexpressing hESCs, EBs were cultured in MEF medium containing fetal bovine serum (FBS), which promotes the formation of mesoderm lineages including cardiomyocytes, as recognised by rhythmically beating structures. […] Nodal expressing EBs grown in these conditions were not seen to generate such beating structures, and instead maintained expression of the pluripotency marker Oct-4 (FIG. 7).

For assay [4], the system named is hESC derived EBs. The assay is described as follows: Quantitation of rosette structures in EBs. Particulars: expressing EBs grown in CDM. As for the experimental part: as §1
To investigate the development of EBs derived from Lefty or Cerb-S overexpressing hESCs, we grew the cells as EBs in suspension culture using CDM medium. As previously observed (Vallier et al., 2004a), wildtype control EBs grown in CDM developed almost exclusively as simple spheres with no apparent tissue organisation. […] Hematoxylin/Eosin staining of sectioned EBs confirmed that these folded structures found in Lefty overexpressing EBs were neuroectoderm-like, with internal epithelial rosettes. Lefty and Cerb-S expressing EBs contained respectively 5 times (Pb 0.05) and 2 times (not significant, N.S.) more epithelial rosettes than control EBs (FIG. 5).

B1: Lefty: mouse Lefty2, Nodal inhibitor stably over-expressed in hESCs (protein, UniProt P57785 78-368, looked up)
Left-right determination …: FSQNFREVAGRFLMSETSTHLLVFGMEQRLPPNSELVQAVLRLFQEPVPRTALRRFERLSPHSARARVTIEWLRVREDGSNRTALIDSRLVSIHESGWKAFDVTEAVNFWQQLSRPRQPLLLQVSVQREHLGPGTWSAHKLVRFAAQGTPDGKGQGEPQLELHTLDLKDYGAQGNCDPEVPVTEGTRCCRQEMYLDLQGMKWAENWILEPPGFLTYECVGSCLQLPESLTIGWPFLGPRQCVASEMTSLPMIVSVKEGGRTRPQVVSLPNMRVQTCSCASDGALIPRGIDL
Regarding B1, the “Nestin, Sox3 and Sox1 expression (real-time qPCR)” value in assay [1] is on record as “increased average levels”. For the same molecule, the “β-tubulin III positive cells/field” value in assay [2] was determined as 69±13 cells/field. The “decrease of incidence of rhythmically contracting structures compared to wildtype EBs” value in assay [3] is listed as around 79%. In addition, the “epithelial rosettes relative to control EBs” value in assay [4] was 5 times.
